Results on two molecules are retold here after paper PMC10794133, “Structures of the promoter-bound respiratory syncytial virus polymerase”.

The target in data set [1] is T1, RSV L (RNA-dependent RNA polymerase);RSV P (phosphoprotein) (human respiratory syncytial virus, …, UniProt P28887;P03421 1-2165;1-241, |). The data set is described as follows: cryo-EM structure; pre-initiation at position 1; Cryo-EM grid conditions not in the material; protein in 25 mM HEPES pH 7.4, 300 mM NaCl, 6 mM MgSO4, 0.5 mM TCEP (gel filtration buffer). Conditions: protein: recombinant;recombinant; tags: N-terminal 6xHis-TEV, TEV-treated;; copies: 1;4; single strand.
T1 sequence (P28887 whole entry, chain 1 of 2): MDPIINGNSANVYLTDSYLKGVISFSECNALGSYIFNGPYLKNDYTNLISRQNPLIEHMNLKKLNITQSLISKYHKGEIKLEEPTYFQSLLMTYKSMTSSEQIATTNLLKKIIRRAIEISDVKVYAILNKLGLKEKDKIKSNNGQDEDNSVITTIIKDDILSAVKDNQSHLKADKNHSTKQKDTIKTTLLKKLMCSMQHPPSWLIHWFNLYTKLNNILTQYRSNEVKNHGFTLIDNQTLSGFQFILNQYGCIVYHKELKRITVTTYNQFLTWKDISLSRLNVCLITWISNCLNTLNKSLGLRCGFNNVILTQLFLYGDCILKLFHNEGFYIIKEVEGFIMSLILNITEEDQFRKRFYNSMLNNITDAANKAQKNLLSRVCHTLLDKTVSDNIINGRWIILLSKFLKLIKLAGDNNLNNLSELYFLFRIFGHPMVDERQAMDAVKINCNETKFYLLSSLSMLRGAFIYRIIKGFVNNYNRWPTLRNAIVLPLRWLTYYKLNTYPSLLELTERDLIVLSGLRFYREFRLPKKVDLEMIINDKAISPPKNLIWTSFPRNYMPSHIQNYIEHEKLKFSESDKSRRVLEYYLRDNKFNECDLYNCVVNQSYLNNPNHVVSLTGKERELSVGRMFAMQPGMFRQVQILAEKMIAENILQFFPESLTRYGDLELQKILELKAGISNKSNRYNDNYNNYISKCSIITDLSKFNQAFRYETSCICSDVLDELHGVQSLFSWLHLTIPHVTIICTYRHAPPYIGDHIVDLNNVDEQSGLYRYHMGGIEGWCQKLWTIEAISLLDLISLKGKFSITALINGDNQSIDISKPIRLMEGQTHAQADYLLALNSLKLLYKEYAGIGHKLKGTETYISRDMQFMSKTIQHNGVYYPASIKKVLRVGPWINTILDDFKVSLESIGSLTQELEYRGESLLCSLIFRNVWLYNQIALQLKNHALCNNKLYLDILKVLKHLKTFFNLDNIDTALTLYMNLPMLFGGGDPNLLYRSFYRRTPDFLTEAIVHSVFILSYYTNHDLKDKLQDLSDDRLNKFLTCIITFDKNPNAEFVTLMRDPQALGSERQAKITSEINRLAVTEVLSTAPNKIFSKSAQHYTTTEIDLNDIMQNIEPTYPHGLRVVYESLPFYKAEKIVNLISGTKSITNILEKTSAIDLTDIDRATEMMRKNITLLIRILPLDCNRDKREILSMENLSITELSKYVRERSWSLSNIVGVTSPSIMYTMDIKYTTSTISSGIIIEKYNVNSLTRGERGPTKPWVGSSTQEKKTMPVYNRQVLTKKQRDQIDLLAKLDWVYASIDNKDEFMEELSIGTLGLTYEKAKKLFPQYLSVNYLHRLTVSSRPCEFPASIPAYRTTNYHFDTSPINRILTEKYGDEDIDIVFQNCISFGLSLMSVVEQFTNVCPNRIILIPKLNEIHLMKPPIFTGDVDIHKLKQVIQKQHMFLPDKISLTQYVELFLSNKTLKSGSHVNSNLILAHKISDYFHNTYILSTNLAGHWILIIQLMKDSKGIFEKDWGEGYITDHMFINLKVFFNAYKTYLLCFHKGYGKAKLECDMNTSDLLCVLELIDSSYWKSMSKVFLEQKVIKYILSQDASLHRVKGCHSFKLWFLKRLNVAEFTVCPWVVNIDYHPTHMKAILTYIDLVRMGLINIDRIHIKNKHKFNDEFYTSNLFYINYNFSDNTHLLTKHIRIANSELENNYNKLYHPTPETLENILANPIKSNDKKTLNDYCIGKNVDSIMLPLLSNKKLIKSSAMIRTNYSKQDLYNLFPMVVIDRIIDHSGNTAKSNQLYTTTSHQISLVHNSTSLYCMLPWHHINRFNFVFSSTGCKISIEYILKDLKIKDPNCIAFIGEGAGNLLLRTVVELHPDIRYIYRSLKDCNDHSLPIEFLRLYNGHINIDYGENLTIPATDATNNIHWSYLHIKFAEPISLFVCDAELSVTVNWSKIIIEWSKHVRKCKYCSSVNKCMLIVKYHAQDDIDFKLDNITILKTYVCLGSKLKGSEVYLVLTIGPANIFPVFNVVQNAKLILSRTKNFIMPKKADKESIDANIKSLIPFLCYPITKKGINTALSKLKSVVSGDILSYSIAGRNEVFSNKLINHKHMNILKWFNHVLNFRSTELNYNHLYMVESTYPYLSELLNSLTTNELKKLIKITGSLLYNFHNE
T1 sequence (P03421 whole entry, chain 2 of 2): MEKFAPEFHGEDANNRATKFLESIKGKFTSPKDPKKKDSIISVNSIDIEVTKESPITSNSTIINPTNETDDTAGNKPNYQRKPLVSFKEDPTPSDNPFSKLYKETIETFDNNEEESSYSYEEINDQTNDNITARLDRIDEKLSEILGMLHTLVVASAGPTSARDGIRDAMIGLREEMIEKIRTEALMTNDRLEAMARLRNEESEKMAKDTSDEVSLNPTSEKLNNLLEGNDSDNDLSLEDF

In data set [2] the target is T1, RSV L (RNA-dependent RNA …). The experiment in a line: cryo-EM structure; GTP and CpNpp supplemented (no product density); pre-initiation at position 3; Cryo-EM grid conditions not in the material; protein in 25 mM HEPES pH 7.4, 300 mM NaCl, 6 mM MgSO4, 0.5 mM TCEP (gel filtration buffer). Conditions: protein: recombinant;recombinant; tags: N-terminal 6xHis-TEV, TEV-treated;; copies: 1;4; single strand.

Turning to UUUUUCUCGU (ssRNA) [TrC10 (3' trailer complementary promoter of antigenome)], the binding result in data set [1] is “binds”. On to UUUUUCGCGU (ssRNA) [Le10 (3' leader promoter of genome)], for which the binding result in data set [2] is “binds”.
